“And” between values parts separate entries of the source, which are not always exact repeats. Identical values can stand only once.

This test deals with T1, PD-1 (as used in the competitive ELISA) (UniProt Q15116 25-167, limits assumed).
T1 construct: PD-1 is inferred as the target from the next sentence on PD-1 receptor occupancy
The test is described as follows: competitive ELISA; competing ligand not named. Background: An ELISA detects its analyte on a solid surface through an enzyme-linked reagent.

B1: toripalimab (antibody, human IgG4 S228P, kappa, V domains shown)
VH: QGQLVQSGAEVKKPGASVKVSCKASGYTFTDYEMHWVRQAPIHGLEWIGVIESETGGTAYNQKFKGRVTITADKSTSTAYMELSSLRSEDTAVYYCAREGITTVATTYYWYFDVWGQGTTVTVSS
VL: DVVMTQSPLSLPVTLGQPASISCRSSQSIVHSNGNTYLEWYLQKPGQSPQLLIYKVSNRFSGVPDRFSGSGSGTDFTLKISRVEAEDVGVYYCFQGSHVPLTFGQGTKLEIKR
notes: Humanized IgG4 mAb; also called JS001; anti-PD-1 antibody toripalimab
Take B1: the IC50 (as a rule, the point on the concentration scale where inhibition reaches its midpoint) was 3 nM and ~0.5 µg/mL.
